Laboratory results as given in IntAct's records for PubMed 17496148.

B1: Anti-sigma-E factor RseA (Escherichia coli (strain K12)), P0AFX7 (parent)
chain: MQKEQLSALMDGETLDSELLNELAHNPEMQKTWESYHLIRDSMRGDTPEVLHFDISSRVMAAIEEEPVRQPATLIPEAQPAPHQWQKMPFWQKVRPWAAQLTQMGVAACVSLAVIVGVQHYNGQSETSQQPETPVFNTLPMMGKASPVSLGVPSEATANNGQQQQVQEQRRRINAMLQDYELQRRLHSEQLQFEQAQTQQAAVQVPGIQTLGTQSQ
partner: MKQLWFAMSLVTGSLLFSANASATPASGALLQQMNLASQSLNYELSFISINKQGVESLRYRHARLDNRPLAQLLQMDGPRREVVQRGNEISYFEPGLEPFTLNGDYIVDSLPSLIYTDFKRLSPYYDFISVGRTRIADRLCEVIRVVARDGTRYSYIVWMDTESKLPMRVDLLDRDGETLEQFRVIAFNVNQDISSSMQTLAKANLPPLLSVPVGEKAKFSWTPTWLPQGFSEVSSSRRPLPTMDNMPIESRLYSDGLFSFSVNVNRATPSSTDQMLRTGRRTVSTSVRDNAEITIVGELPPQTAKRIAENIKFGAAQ

Variants of: B1
Conditions: with rseb_ecoli rseB

Row | effect of a mutation on the interaction | Variant
1 | disrupting interaction strength | MQKEQLSALMDGETLDSELLNELAHNPEMQKTWESYHLIRDSMRGDTPEVLHFDISSRVMAAIEEEPVRQPATLIPEAQPAPHQWQKMPFWQKVRPWAAQLTQMGVAACVSLAVIVGVQHYNGQSETSQQPETPVFNTLPMMGKASPVSLGVPSEATANNGQQQQVQEQREEINAMLQDYELQRRLHSEQLQFEQAQTQQAAVQVPGIQTLGTQSQ [R171E;R172E]
2 | disrupting interaction strength | MQKEQLSALMDGETLDSELLNELAHNPEMQKTWESYHLIRDSMRGDTPEVLHFDISSRVMAAIEEEPVRQPATLIPEAQPAPHQWQKMPFWQKVRPWAAQLTQMGVAACVSLAVIVGVQHYNGQSETSQQPETPVFNTLPMMGKASPVSLGVPSEATANNGQQQQVQEQRRRINAMLQDYELQEELHSEQLQFEQAQTQQAAVQVPGIQTLGTQSQ [R184E;R185E]
3 | disrupting interaction strength | MQKEQLSALMDGETLDSELLNELAHNPEMQKTWESYHLIRDSMRGDTPEVLHFDISSRVMAAIEEEPVRQPATLIPEAQPAPHQWQKMPFWQKVRPWAAQLTQMGVAACVSLAVIVGVQHYNGQSETSQQPETPVFNTLPMMGKASPVSLGVPSEATANNGQQQQVQEQRAAINAMLQDYELQRRLHSEQLQFEQAQTQQAAVQVPGIQTLGTQSQ [R171A;R172A]
4 | disrupting interaction strength | MQKEQLSALMDGETLDSELLNELAHNPEMQKTWESYHLIRDSMRGDTPEVLHFDISSRVMAAIEEEPVRQPATLIPEAQPAPHQWQKMPFWQKVRPWAAQLTQMGVAACVSLAVIVGVQHYNGQSETSQQPETPVFNTLPMMGKASPVSLGVPSEATANNGQQQQVQEQRRRINAMLQDYELQAALHSEQLQFEQAQTQQAAVQVPGIQTLGTQSQ [R184A;R185A]
